Test results published in patent US20060099643A1, “Method for determining the regulation of xenobiotic removal” (priority 2002, published 2006).

Legend:
SXR [1] = target: T1, SXR (UniProt O75469 130-434, limits assumed); assay: Thermofluor thermal shift; SXR 6 µM with lithocholic acid 50 µM; peptide 100 µM
T1 construct: also called steroid and xenobiotic receptor; steroid X receptor
T1 sequence (looked up): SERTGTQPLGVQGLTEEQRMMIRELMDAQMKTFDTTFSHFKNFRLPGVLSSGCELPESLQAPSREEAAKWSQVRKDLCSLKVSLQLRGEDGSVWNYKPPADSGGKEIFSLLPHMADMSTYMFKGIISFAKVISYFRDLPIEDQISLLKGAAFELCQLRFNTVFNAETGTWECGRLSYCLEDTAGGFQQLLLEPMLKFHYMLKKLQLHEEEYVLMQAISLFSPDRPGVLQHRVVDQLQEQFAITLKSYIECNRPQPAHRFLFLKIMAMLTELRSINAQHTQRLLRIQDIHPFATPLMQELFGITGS

SXR [2] = target: T1, SXR; assay: Thermofluor thermal shift; SXR 6 µM with cortisone 50 µM; peptide 100 µM
SXR [3] = target: T1, SXR; assay: Thermofluor thermal shift; SXR 6 µM, ligand free; peptide 100 µM
ER-β [4] = target: T2, ER-β (UniProt Q92731 256-505, limits assumed); assay: Thermofluor thermal shift; ER-β 8 µM, no ligand; peptide 100 µM
T2 construct: also called estrogen receptor beta

SXR [5] = target: T1, SXR; assay: Thermofluor thermal shift; SXR 6 µM with hydrocortisone 50 µM; peptide 100 µM
SXR [6] = target: T1, SXR; assay: Thermofluor thermal shift; SXR 6 µM with clofibrate 50 µM; peptide 100 µM
ER-α [7] = target: T3, ER-α (UniProt P03372 297-554, limits assumed); assay: Thermofluor thermal shift; ER-α 8 µM with 4-OH-tamoxifen 20 µM; peptide 100 µM
T3 construct: also called estrogen receptor alpha
T3 sequence (looked up): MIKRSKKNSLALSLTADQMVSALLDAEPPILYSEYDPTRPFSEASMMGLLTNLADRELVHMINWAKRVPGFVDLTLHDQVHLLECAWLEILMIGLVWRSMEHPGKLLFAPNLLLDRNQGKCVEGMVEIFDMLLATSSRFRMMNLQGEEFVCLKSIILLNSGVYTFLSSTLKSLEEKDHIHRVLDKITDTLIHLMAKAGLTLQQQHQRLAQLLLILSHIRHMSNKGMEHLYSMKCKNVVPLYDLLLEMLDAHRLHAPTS

ER-β [8] = target: T2, ER-β; assay: Thermofluor thermal shift; ER-β 8 µM with 4-OH-tamoxifen 20 µM; peptide 100 µM
ER-β [9] = target: T2, ER-β; assay: Thermofluor thermal shift; ER-β 8 µM with estrone 20 µM; peptide 100 µM
ER-α [10] = target: T3, ER-α; assay: Thermofluor thermal shift; ER-α 8 µM with estradiol 20 µM; peptide 100 µM
SXR [11] = target: T1, SXR; assay: Thermofluor thermal shift; SXR 6 µM with taxol 50 µM; peptide 100 µM
ER-α [12] = target: T3, ER-α; assay: Thermofluor thermal shift; ER-α 8 µM with 2-methoxy-E2 20 µM; peptide 100 µM
ER-α [13] = target: T3, ER-α; assay: Thermofluor thermal shift; ER-α 8 µM with ICI-182780 20 µM; peptide 100 µM
ER-β [14] = target: T2, ER-β; assay: Thermofluor thermal shift; ER-β 8 µM with 17-α-ethylene-E2 20 µM; peptide 100 µM
SXR [15] = target: T1, SXR; assay: Thermofluor thermal shift; SXR 6 µM with lovastatin 50 µM; peptide 100 µM
ER-β [16] = target: T2, ER-β; assay: Thermofluor thermal shift; ER-β 8 µM with estradiol 20 µM; peptide 100 µM
SXR [17] = target: T1, SXR; assay: Thermofluor thermal shift; SXR 6 µM with 17-α-hydroxyprogesterone 50 µM; peptide 100 µM
SXR [18] = target: T1, SXR; assay: Thermofluor thermal shift; SXR 6 µM with corticosterone 50 µM; peptide 100 µM
SXR [19] = target: T1, SXR; assay: Thermofluor thermal shift; SXR 6 µM with 11-α-hydroxy-progesterone 50 µM; peptide 100 µM
ER-β [20] = target: T2, ER-β; assay: Thermofluor thermal shift; ER-β 8 µM with 2-methoxy-E2 20 µM; peptide 100 µM
ER-α [21] = target: T3, ER-α; assay: Thermofluor thermal shift; ER-α 8 µM with 17-α-ethylene-E2 20 µM; peptide 100 µM
SXR [22] = target: T1, SXR; assay: Thermofluor thermal shift; SXR 6 µM with 4-androstene 50 µM; peptide 100 µM
ER-β [23] = target: T2, ER-β; assay: Thermofluor thermal shift; ER-β 8 µM with tamoxifen 20 µM; peptide 100 µM
ER-α [24] = target: T3, ER-α; assay: Thermofluor thermal shift; ER-α 8 µM with estrone 20 µM; peptide 100 µM
SXR [25] = target: T1, SXR; assay: Thermofluor thermal shift; SXR 6 µM with estradiol 50 µM; peptide 100 µM
ER-α [26] = target: T3, ER-α; assay: Thermofluor thermal shift; ER-α 8 µM, no ligand; peptide 100 µM
ER-α [27] = target: T3, ER-α; assay: Thermofluor thermal shift; ER-α 8 µM with tamoxifen 20 µM; peptide 100 µM
ER-β [28] = target: T2, ER-β; assay: Thermofluor thermal shift; ER-β 8 µM with ICI-182780 20 µM; peptide 100 µM
SXR [29] = target: T1, SXR; assay: Thermofluor thermal shift; SXR 6 µM with androsterone 50 µM; peptide 100 µM
ER-α [30] = target: T3, ER-α; assay: Thermofluor thermal shift; ER-α 8 µM with estrone 20 µM; SRC-3 11 µM
ER-β [31] = target: T2, ER-β; assay: Thermofluor thermal shift; ER-β 8 µM with 2-methoxy-E2 20 µM; SRC-3 11 µM
ER-β [32] = target: T2, ER-β; assay: Thermofluor thermal shift; ER-β 8 µM with 4-OH-tamoxifen 20 µM; SRC-3 11 µM
ER-α [33] = target: T3, ER-α; assay: Thermofluor thermal shift; ER-α 8 µM with tamoxifen 20 µM; SRC-3 11 µM
ER-α [34] = target: T3, ER-α; assay: Thermofluor thermal shift; ER-α 8 µM, no ligand; SRC-3 11 µM
ER-α [35] = target: T3, ER-α; assay: Thermofluor thermal shift; ER-α 8 µM with ICI-182780 20 µM; SRC-3 11 µM
ER-β [36] = target: T2, ER-β; assay: Thermofluor thermal shift; ER-β 8 µM with 17-α-ethylene-E2 20 µM; SRC-3 11 µM
ER-β [37] = target: T2, ER-β; assay: Thermofluor thermal shift; ER-β 8 µM with estradiol 20 µM; SRC-3 11 µM
ER-α [38] = target: T3, ER-α; assay: Thermofluor thermal shift; ER-α 8 µM with 4-OH-tamoxifen 20 µM; SRC-3 11 µM
ER-α [39] = target: T3, ER-α; assay: Thermofluor thermal shift; ER-α 8 µM with 2-methoxy-E2 20 µM; SRC-3 11 µM
ER-β [40] = target: T2, ER-β; assay: Thermofluor thermal shift; ER-β 8 µM, no ligand; SRC-3 11 µM
ER-α [41] = target: T3, ER-α; assay: Thermofluor thermal shift; ER-α 8 µM with 17-α-ethylene-E2 20 µM; SRC-3 11 µM
ER-β [42] = target: T2, ER-β; assay: Thermofluor thermal shift; ER-β 8 µM with tamoxifen 20 µM; SRC-3 11 µM
ER-β [43] = target: T2, ER-β; assay: Thermofluor thermal shift; ER-β 8 µM with estrone 20 µM; SRC-3 11 µM
ER-β [44] = target: T2, ER-β; assay: Thermofluor thermal shift; ER-β 8 µM with ICI-182780 20 µM; SRC-3 11 µM
ER-α [45] = target: T3, ER-α; assay: Thermofluor thermal shift; ER-α 8 µM with estradiol 20 µM; SRC-3 11 µM

T2 sequence (Q92731 256-505 limits assumed): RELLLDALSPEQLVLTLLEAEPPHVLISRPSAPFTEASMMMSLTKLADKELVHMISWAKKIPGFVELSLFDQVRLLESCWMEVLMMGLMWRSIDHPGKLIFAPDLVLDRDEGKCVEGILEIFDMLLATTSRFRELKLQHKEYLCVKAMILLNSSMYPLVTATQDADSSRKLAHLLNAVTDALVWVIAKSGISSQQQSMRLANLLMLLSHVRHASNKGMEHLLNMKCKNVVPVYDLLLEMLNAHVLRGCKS

Molecule: co-repressor peptide NCoR-1 (from UniProt O75376 2044-2066)
- ΔΔTm (SXR [1]): 1.4 °C
- ΔΔTm (SXR [2]): 3.6 °C
- ΔΔTm (SXR [3]): 6.7 °C
- change in Tm stabilization from the receptor-ligand ΔTm (ER-β [4]): -0.4 °C
- ΔΔTm (SXR [5]): 3.7 °C
- ΔΔTm (SXR [6]): 3.4 °C
- change in Tm stabilization from the receptor-ligand ΔTm (ER-α [7]): 0.1 °C
- change in Tm stabilization from the receptor-ligand ΔTm (ER-β [8]): 0.3
- change in Tm stabilization from the receptor-ligand ΔTm (ER-β [9]): -0.3
- change in Tm stabilization from the receptor-ligand ΔTm (ER-α [10]): 0 °C
- ΔΔTm (SXR [11]): 4.7 °C
- change in Tm stabilization from the receptor-ligand ΔTm (ER-α [12]): -0.7 °C
- change in Tm stabilization from the receptor-ligand ΔTm (ER-α [13]): -0.6
- change in Tm stabilization from the receptor-ligand ΔTm (ER-β [14]): -0.7
- ΔΔTm (SXR [15]): 1.2 °C
- change in Tm stabilization from the receptor-ligand ΔTm (ER-β [16]): 0 °C
- ΔΔTm (SXR [17]): 3.5 °C
- ΔΔTm (SXR [18]): 0.5 °C
- ΔΔTm (SXR [19]): 1 °C
- change in Tm stabilization from the receptor-ligand ΔTm (ER-β [20]): -0.7
- change in Tm stabilization from the receptor-ligand ΔTm (ER-α [21]): -0.1 °C
- ΔΔTm (SXR [22]): 3.6 °C
- change in Tm stabilization from the receptor-ligand ΔTm (ER-β [23]): 0.4 °C
- change in Tm stabilization from the receptor-ligand ΔTm (ER-α [24]): -0.3
- ΔΔTm (SXR [25]): 2.3 °C
- change in Tm stabilization from the receptor-ligand ΔTm (ER-α [26]): 0 °C
- change in Tm stabilization from the receptor-ligand ΔTm (ER-α [27]): 0.1 °C
- change in Tm stabilization from the receptor-ligand ΔTm (ER-β [28]): 0.3 °C
- ΔΔTm (SXR [29]): 3.8 °C

Molecule: co-activator protein SRC-3 (from UniProt Q9Y6Q9 627-829)
- change in Tm stabilization from the receptor-ligand ΔTm (ER-α [30]): 3.5 °C
- change in Tm stabilization from the receptor-ligand ΔTm (ER-β [31]): 2.5 °C
- change in Tm stabilization from the receptor-ligand ΔTm (ER-β [32]): 1.2 °C
- change in Tm stabilization from the receptor-ligand ΔTm (ER-α [33]): 1.1 °C
- change in Tm stabilization from the receptor-ligand ΔTm (ER-α [34]): 1.5
- change in Tm stabilization from the receptor-ligand ΔTm (ER-α [35]): 0.5 °C
- change in Tm stabilization from the receptor-ligand ΔTm (ER-β [36]): 2.6
- change in Tm stabilization from the receptor-ligand ΔTm (ER-β [37]): 1.7
- change in Tm stabilization from the receptor-ligand ΔTm (ER-α [38]): 0.2
- change in Tm stabilization from the receptor-ligand ΔTm (ER-α [39]): 5.3
- change in Tm stabilization from the receptor-ligand ΔTm (ER-β [40]): 0.9
- change in Tm stabilization from the receptor-ligand ΔTm (ER-α [41]): 4.5 °C
- change in Tm stabilization from the receptor-ligand ΔTm (ER-β [42]): 1.3
- change in Tm stabilization from the receptor-ligand ΔTm (ER-β [43]): 1.6 °C
- change in Tm stabilization from the receptor-ligand ΔTm (ER-β [44]): 0.9 °C
- change in Tm stabilization from the receptor-ligand ΔTm (ER-α [45]): 3.8 °C

Molecule: LTERHKILHRLLQEGSPSD (peptide, UniProt Q15788 683-701, looked up, Peptide fragment of SRC-1) [co-activator peptide SRC1-NR2]
- ΔΔTm (SXR [1]): 2.9
- ΔΔTm (SXR [2]): 2.9
- ΔΔTm (SXR [3]): 2.9
- change in Tm stabilization from the receptor-ligand ΔTm (ER-β [4]): 0.7
- ΔΔTm (SXR [5]): 3.3
- ΔΔTm (SXR [6]): 3.3
- change in Tm stabilization from the receptor-ligand ΔTm (ER-α [7]): 0.2
- change in Tm stabilization from the receptor-ligand ΔTm (ER-β [8]): 0.2
- change in Tm stabilization from the receptor-ligand ΔTm (ER-β [9]): 3.8
- change in Tm stabilization from the receptor-ligand ΔTm (ER-α [10]): 4.9
- ΔΔTm (SXR [11]): 2.5
- change in Tm stabilization from the receptor-ligand ΔTm (ER-α [12]): 5.5
- change in Tm stabilization from the receptor-ligand ΔTm (ER-α [13]): 0.2
- change in Tm stabilization from the receptor-ligand ΔTm (ER-β [14]): 2.6
- ΔΔTm (SXR [15]): 3
- change in Tm stabilization from the receptor-ligand ΔTm (ER-β [16]): 3.4
- ΔΔTm (SXR [17]): 3.3
- ΔΔTm (SXR [18]): 2.7
- ΔΔTm (SXR [19]): 4.6
- change in Tm stabilization from the receptor-ligand ΔTm (ER-β [20]): 4.4
- change in Tm stabilization from the receptor-ligand ΔTm (ER-α [21]): 4.5
- ΔΔTm (SXR [22]): 2.9
- change in Tm stabilization from the receptor-ligand ΔTm (ER-β [23]): 0.2
- change in Tm stabilization from the receptor-ligand ΔTm (ER-α [24]): 3
- ΔΔTm (SXR [25]): 3.9
- change in Tm stabilization from the receptor-ligand ΔTm (ER-α [26]): 0.8
- change in Tm stabilization from the receptor-ligand ΔTm (ER-α [27]): -0.5
- change in Tm stabilization from the receptor-ligand ΔTm (ER-β [28]): 0.4
- ΔΔTm (SXR [29]): 3.5
